Laboratory results: publication PMC9177663, “Substrate-dependent modulation of the leukotriene A4 hydrolase aminopeptidase activity and effect in a murine model of acute lung inflammation” (Scientific Reports, 2022)

Legend:
[1] = target: T1, leukotriene A4 hydrolase (LTA4H) (Homo sapiens, UniProt P09960); experiment: X-ray co-crystal structure of ternary LTA4H:4MDM:OPB-Pro complex, […] Å; assay type: binding
T1 construct: N-terminal (His)6- and Xpress-tag
T1 sequence (P09960 2-611): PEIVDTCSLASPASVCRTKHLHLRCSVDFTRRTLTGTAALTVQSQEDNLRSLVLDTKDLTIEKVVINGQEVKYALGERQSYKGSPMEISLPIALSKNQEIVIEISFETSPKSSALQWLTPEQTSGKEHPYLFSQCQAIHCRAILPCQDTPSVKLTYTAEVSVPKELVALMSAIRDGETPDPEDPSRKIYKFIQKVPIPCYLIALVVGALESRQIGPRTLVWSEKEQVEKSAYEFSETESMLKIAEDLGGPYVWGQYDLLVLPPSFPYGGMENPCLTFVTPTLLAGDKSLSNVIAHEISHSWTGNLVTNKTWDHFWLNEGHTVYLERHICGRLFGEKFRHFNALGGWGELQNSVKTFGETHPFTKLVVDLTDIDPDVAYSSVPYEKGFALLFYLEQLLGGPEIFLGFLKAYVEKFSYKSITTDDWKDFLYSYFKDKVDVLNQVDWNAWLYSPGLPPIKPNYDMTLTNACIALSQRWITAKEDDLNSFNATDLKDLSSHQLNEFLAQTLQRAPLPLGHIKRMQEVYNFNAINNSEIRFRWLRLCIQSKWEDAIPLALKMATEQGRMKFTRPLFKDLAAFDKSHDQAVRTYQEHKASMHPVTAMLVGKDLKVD

purified protein = substrate: N=C(N)NCCC[C@H](N)C(=O)Nc1ccc([N+](=O)[O-])cc1; experiment: purified protein; settings: Zn2+ LTA4H AP substrate site; cannot bind simultaneously with 4MDM
[2] = substrate: C[C@H](N)C(=O)Nc1ccc([N+](=O)[O-])cc1; experiment: Michaelis-Menten hydrolysis kinetics of purified LTA4H at A405 (KM); assay type: biochemical, Homo sapiens; settings: Zn2+ LTA4H AP substrate site
[3] = substrate: O=C(Nc1ccc([N+](=O)[O-])cc1)[C@@H]1CCCN1; experiment: as above; assay type: biochemical, Homo sapiens; settings: Zn2+ LTA4H AP substrate site

Molecule | X-ray co-crystal structure of ternary LTA4H:4MDM:OPB-Pro complex, 2.8 Å [1] | Km (purified protein) | kcat (purified protein) | kcat/Km (purified protein) | Km [2] | kcat [2] | kcat/Km [2] | Km [3] | kcat [3] | kcat/Km [3]
O=C(O)[C@@H]1CCCN1C(=O)CCC(=O)N1CCCC1 [OPB-Pro, N-(4-oxo-4-pyrrolidinyl-butanoyl)-proline] | The OPB-Pro was bound in the AP active site with its prolyl carbonyl group interacting with the zinc atom. |  |  |  |  |  |  |  |  | 
leukotriene A4 hydrolase (LTA4H) (Homo sapiens) (protein, N-terminal (His)6- and Xpress-tag) PEIVDTCSLASPASVCRTKHLHLRCSVDFTRRTLTGTAALTVQSQEDNLRSLVLDTKDLTIEKVVINGQEVKYALGERQSYKGSPMEISLPIALSKNQEIVIEISFETSPKSSALQWLTPEQTSGKEHPYLFSQCQAIHCRAILPCQDTPSVKLTYTAEVSVPKELVALMSAIRDGETPDPEDPSRKIYKFIQKVPIPCYLIALVVGALESRQIGPRTLVWSEKEQVEKSAYEFSETESMLKIAEDLGGPYVWGQYDLLVLPPSFPYGGMENPCLTFVTPTLLAGDKSLSNVIAHEISHSWTGNLVTNKTWDHFWLNEGHTVYLERHICGRLFGEKFRHFNALGGWGELQNSVKTFGETHPFTKLVVDLTDIDPDVAYSSVPYEKGFALLFYLEQLLGGPEIFLGFLKAYVEKFSYKSITTDDWKDFLYSYFKDKVDVLNQVDWNAWLYSPGLPPIKPNYDMTLTNACIALSQRWITAKEDDLNSFNATDLKDLSSHQLNEFLAQTLQRAPLPLGHIKRMQEVYNFNAINNSEIRFRWLRLCIQSKWEDAIPLALKMATEQGRMKFTRPLFKDLAAFDKSHDQAVRTYQEHKASMHPVTAMLVGKDLKVD |  | 18790 ± 2730 µM | 24.4 s⁻¹ | 1300 M⁻¹ s⁻¹ | 1600 ± 120 µM | 1.74 ± 0.07 s⁻¹ | 1080 M⁻¹ s⁻¹ | 840 ± 50 µM | 0.19 ± 0.01 s⁻¹ | 230 M⁻¹ s⁻¹
